# Test results published in US20230212268A1 (UNM RAINFOREST INNOVATIONS, published 2023).
# T1: recombinant SUDV glycoprotein (SUDV (Sudan ebolavirus), UniProt Q7T9D9 33-650)
# T1 sequence: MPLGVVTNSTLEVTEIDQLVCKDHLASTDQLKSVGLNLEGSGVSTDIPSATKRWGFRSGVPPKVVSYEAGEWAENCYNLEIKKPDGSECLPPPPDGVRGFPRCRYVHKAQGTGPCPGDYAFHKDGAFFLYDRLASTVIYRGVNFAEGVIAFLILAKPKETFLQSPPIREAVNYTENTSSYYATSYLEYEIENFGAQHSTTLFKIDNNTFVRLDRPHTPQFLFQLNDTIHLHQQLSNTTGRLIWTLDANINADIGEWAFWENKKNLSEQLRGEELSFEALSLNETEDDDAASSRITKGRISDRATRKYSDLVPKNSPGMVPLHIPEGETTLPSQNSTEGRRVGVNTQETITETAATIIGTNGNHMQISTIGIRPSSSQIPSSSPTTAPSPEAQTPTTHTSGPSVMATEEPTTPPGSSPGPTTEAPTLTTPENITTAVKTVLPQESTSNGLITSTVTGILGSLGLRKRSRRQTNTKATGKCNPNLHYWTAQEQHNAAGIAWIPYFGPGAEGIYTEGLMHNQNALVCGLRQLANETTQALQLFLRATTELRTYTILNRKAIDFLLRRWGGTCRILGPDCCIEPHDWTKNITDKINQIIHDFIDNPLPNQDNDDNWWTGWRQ
# T2: recombinant TAFV glycoprotein (TAFV (Tai Forest virus), UniProt Q66810 33-650)
# T2 sequence: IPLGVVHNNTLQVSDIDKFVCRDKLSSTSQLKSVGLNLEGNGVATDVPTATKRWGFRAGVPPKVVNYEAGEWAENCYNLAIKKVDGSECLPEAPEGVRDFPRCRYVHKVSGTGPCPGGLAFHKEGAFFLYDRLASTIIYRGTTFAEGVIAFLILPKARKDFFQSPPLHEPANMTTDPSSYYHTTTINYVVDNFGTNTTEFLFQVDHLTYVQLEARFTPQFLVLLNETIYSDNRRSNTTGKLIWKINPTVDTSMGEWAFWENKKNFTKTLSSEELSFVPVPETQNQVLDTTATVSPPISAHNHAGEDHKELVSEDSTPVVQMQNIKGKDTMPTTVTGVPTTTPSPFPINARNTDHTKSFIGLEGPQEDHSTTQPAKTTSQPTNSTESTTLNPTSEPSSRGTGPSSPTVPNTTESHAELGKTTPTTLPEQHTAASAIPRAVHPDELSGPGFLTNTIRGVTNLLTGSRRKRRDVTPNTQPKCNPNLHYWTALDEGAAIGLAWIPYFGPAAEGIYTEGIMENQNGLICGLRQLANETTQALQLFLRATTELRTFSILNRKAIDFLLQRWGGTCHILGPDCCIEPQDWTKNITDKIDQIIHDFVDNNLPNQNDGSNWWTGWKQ
# T3: recombinant RESTV glycoprotein (RESTV (Reston ebolavirus), UniProt Q66799 34-651)
# T3 sequence: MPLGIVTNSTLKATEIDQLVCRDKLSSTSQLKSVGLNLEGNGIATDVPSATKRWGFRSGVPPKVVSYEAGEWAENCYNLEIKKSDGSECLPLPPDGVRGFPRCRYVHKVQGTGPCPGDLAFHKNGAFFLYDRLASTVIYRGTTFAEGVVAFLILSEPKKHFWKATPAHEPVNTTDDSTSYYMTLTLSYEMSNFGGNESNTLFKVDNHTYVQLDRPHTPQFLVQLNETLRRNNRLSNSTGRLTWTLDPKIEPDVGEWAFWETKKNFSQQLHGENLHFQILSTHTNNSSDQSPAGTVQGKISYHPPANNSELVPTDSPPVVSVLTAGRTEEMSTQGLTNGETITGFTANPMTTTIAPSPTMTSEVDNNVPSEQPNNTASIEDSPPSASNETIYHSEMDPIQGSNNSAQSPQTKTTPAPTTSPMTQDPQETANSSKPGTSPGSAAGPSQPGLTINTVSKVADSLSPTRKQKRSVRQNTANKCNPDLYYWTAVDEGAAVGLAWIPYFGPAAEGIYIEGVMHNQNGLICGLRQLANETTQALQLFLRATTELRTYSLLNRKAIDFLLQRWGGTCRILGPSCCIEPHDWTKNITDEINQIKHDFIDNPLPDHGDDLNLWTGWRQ
# T4: recombinant MARV glycoprotein (MARV (marburgvirus, Ravn), UniProt Q1PDC7 19-648)
# T4 sequence: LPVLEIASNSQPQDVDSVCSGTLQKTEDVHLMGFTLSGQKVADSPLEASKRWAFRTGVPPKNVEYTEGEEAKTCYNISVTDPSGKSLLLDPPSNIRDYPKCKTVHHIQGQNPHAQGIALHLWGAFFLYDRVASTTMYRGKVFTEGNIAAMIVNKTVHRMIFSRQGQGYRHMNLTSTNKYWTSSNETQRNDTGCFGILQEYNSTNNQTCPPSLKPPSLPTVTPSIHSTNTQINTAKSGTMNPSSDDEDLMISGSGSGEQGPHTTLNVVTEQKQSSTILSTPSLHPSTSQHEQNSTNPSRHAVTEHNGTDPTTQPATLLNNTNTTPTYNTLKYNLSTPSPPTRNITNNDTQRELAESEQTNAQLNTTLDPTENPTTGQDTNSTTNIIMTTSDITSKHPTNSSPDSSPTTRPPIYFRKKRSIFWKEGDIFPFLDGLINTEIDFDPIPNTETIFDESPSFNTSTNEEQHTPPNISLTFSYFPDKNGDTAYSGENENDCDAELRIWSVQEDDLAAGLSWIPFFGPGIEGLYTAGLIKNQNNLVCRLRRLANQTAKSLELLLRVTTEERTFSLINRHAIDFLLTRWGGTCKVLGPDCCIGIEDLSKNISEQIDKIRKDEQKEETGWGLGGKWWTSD
# B1: EbovGPscFv4-2 (scFv)
# scFv: MAWSHPQFEKTGSGGAELVKSGASVKLSCTASGFNIKDDYMHWVKQRPEQGLEWIGWIDPENGDTEYASKFQGKATITADTSSNTAYLQLSSLTSEDTAVYYCTTYYYGSAWFAYWGQGTLVTVSAGGGGSGGGGSGGGGSGGGGSASLSVSVGETVTITCRASGNIHNYLAWYQQKQGKSPQLLVYNAKTLADGVPSRFSGSGSGTQYSLKINNLQPEDFGSYYCQHFWSTPYTFGGGTKLEIKRADAAPTVSIFPPSSEQLTSGGASVVCFLNNFTHCQELQQDECS
# Legend:
# [1] = biological target: T1, recombinant SUDV glycoprotein; test: ELISA dose-response fit, reference scFv22-1
# [2] = biological target: T2, recombinant TAFV glycoprotein; test: ELISA dose-response fit, reference scFv22-1
# [3] = biological target: T1, recombinant SUDV glycoprotein; test: maximal binding from ELISA dose-response fit
# [4] = biological target: T3, recombinant RESTV glycoprotein; test: maximal binding from ELISA dose-response fit
# [5] = biological target: T2, recombinant TAFV glycoprotein; test: maximal binding from ELISA dose-response fit
# [6] = biological target: T4, recombinant MARV glycoprotein; test: maximal binding from ELISA dose-response fit
binder,measurement,setting,value
B1,fold affinity against scFv22-1,[1],~2 fold
same,fold affinity against scFv22-1,[2],~2 fold
same,Bmax signal,[3],280000 relative absorbance units
same,Bmax signal,[4],210000 relative absorbance units
same,Bmax signal,[5],280000 relative absorbance units
same,Bmax signal,[6],380000 relative absorbance units
